T1: FLAG-tagged 88C receptor (human, UniProt P51681 1-352)
T1 sequence: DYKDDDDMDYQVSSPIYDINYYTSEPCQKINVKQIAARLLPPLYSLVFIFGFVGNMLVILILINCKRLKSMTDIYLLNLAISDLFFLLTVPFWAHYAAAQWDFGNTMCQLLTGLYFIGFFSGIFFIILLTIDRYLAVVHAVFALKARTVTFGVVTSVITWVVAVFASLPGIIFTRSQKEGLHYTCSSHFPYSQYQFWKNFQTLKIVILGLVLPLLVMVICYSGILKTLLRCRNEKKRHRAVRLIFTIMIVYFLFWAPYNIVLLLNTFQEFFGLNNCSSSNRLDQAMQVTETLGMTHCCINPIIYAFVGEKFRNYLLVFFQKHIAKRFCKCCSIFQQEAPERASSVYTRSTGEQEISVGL


What was measured:
FLAG-tagged 88C receptor [1] = target: T1, FLAG-tagged 88C receptor; assay: equilibrium binding of 125I-MIP-1β to HEK-293 cells expressing FLAG-tagged 88C, Scatchard analysis
From the text: Another assay for receptor interaction with chemokines was a modification of the binding assay described by Ernst et al., J. Immunol. 152:3541-3549 (1994). MIP-1β as labeled using the Bolton and Hunter reagent (di-iodide, NEN, Wilmington, Del.), according to the manufacturer's instructions. Unconjugated iodide was separated from labeled protein by elution using a PD-10 column (Pharmacia) equilibrated with PBS and BSA (1% w/v). The specific activity was typically 2200 Ci/mmole. Equilibrium binding was performed by adding ¹²⁵I-labeled ligand with or without a 100-fold excess of unlabeled ligand, to 5×10⁵ HEK-293 cells transfected with 88C tagged with the FLAG epitope in polypropylene tubes in a total volume of 300 μl (50 mM HEPES pH 7.4, 1 mM CaCl₂, MgCl₂, 0.5% BSA) and incubating for 90 minutes at 27° C. with shaking at 150 rpm. […] After washing, the filters were removed and bound ligand was quantitated by counting gamma emissions. Ligand binding by competition with unlabeled ligand was determined by incubation of 5×10⁵ transfected cells (as above) with 1.5 nM of radiolabeled ligand and the indicated concentrations of unlabeled ligand. The samples were collected, washed and counted as above. The data was analyzed using the curve-fitting program Prism (GraphPad Inc., San Diego, Calif.) and the iterative non-linear regression program, LIGAND (PM220). […]

FLAG-tagged 88C receptor [2] = target: T1, FLAG-tagged 88C receptor; assay: cell-based or functional assay
FLAG-tagged 88C receptor [3] = target: T1, FLAG-tagged 88C receptor; assay: competition of the unlabeled ligand with 1.5 nM 125I-MIP-1β on HEK-293 cells expressing FLAG-tagged 88C
From the text: Another assay for receptor interaction with chemokines was a modification of the binding assay described by Ernst et al., J. Immunol. 152:3541-3549 (1994). MIP-1β as labeled using the Bolton and Hunter reagent (di-iodide, NEN, Wilmington, Del.), according to the manufacturer's instructions. Unconjugated iodide was separated from labeled protein by elution using a PD-10 column (Pharmacia) equilibrated with PBS and BSA (1% w/v). The specific activity was typically 2200 Ci/mmole. Equilibrium binding was performed by adding ¹²⁵I-labeled ligand with or without a 100-fold excess of unlabeled ligand, to 5×10⁵ HEK-293 cells transfected with 88C tagged with the FLAG epitope in polypropylene tubes in a total volume of 300 μl (50 mM HEPES pH 7.4, 1 mM CaCl₂, MgCl₂, 0.5% BSA) and incubating for 90 minutes at 27° C. with shaking at 150 rpm. The cells were collected, using a Skatron cell harvester (Skatron Instruments Inc., Sterling, Va.), on glass fiber filters presoaked in 0.3% polyethyleneimine and 0.2% BSA. After washing, the filters were removed and bound ligand was quantitated by counting gamma emissions. Ligand binding by competition with unlabeled ligand was determined by incubation of 5×10⁵ transfected cells (as above) with 1.5 nM of radiolabeled ligand and the indicated concentrations of unlabeled ligand. The samples were collected, washed and counted as above. The data was analyzed using the curve-fitting program Prism (GraphPad Inc., San Diego, Calif.) and the iterative non-linear regression program, LIGAND (PM220).
In equilibrium binding assays, 88C receptor bound radiolabeled MIP-1β in a specific and saturable manner.

Kd (FLAG-tagged 88C receptor [1])	EC50 of inositol phosphate formation (dose-response curves) (FLAG-tagged 88C receptor [2])	IC50 (FLAG-tagged 88C receptor [3])	Binder
1.6 nM	6 nM	7.4 nM	MIP-1β (ligand, UniProt P13236 24-92, looked up, ends and bridges not checked; also: 125I label (Bolton and Hunter reagent) where used as radiolabeled ligand) APMGSDPPTACCFSYTARKLPRNFVVDYYETSSLCSQPAVVFQTKRSKQVCADPSESWVQEYVYDLELN
	1 nM	6.9 nM	RANTES (Regulated on Activation, Normal T Expressed and Secreted) (ligand, UniProt P13501 24-91, looked up) SPYSSDTTPCCFAYIARPLPRAHIKEYFYTSGKCSNPAVVFVTRKNRQVCANPEKKWVREYINSLEMS
	22 nM	7.4 nM	MIP-1α (ligand, UniProt P10147 24-92, looked up) SLAADTPTACCFSYTSRQIPQNFIADYFETSSQCSKPGVIFLTKRSRQVCADPSEEWVQKYVSDLELSA
